Data published in patent US20130071366A1 (CANCER RESEARCH TECHNOLOGY, published 2013).
Read-outs that look alike come from different tables or passages of the source.

Tests used:
[1] = biological target: T1, Insulin-like Growth Factor II (IGF-II), recombinant human (human, UniProt P01344 25-91, biotinyl group (site not stated) when immobilised for SPR; not biotinylated as SPR analyte or in ITC); assay: SPR, steady-state KD relative to wild type domain 11
T1 construct: mature; Bought as Biotinyl-IGF-II from GroPep for immobilisation on streptavidin chips; also called IGF2; Biotinyl-IGF-II
Experimental: […]. Values are the mean±S.E.M. of three separate experiments.
(§1) Kinetic analysis by Surface Plasmon Resonance (SPR) was conducted on a BIAcore 3000 biosensor (BIAcore, Uppsala, Sweden) at 25° C. in HBS-EP (10 mM HEPES, pH 7.4, 150 mM NaCl, 3 mM EDTA, 0.005% surfactant P20) at a flow rate of 40 μl/min. […] Kinetic experiments consisted of a two minute injection of analyte followed by a 100s dissociation phase in running buffer, after which the binding surface was regenerated with a 2 minute injection of 2 M MgCl₂. A blank flow cell was used for in-line reference subtraction of changes due to differences in refractive index of running buffer versus sample and a buffer-only injection was used to subtract instrument noise and drift. Injections were performed in duplicate for each concentration and in a randomised order. Kinetic parameters were determined by global fitting of sensorgrams to a two-state (conformational change) binding model using BIAevaluation software version 4.0.1. In all cases the minor component made an insignificant contribution to the overall affinity and as such only the kinetic parameters of the major binding component were used. For each interaction the dissociation affinity constant (KD) was also calculated by fitting of the response of each concentration at equilibrium to a steady-state affinity model using BIAevaluation. In order to investigate the influence of ionic strength, kinetic experiments were conducted in HBS-EP running buffers containing the desired NaCl concentration. In each case, analyte samples were made up in the appropriate running buffer prior to injection.
Following purification, the binding of each mutant construct to IGF2 was assessed by SPR and compared to the wild type domain 11.

[2] = biological target: T1, Insulin-like Growth Factor II (IGF-II), …; assay: as above; remark: listed apart in the source
Experimental: as §1, with “BIAevaluation.” for “BIAevaluation. In order to investigate the influence of ionic strength, kinetic experiments were conducted in HBS-EP running buffers containing the desired NaCl concentration. In each case, analyte samples were made up in the appropriate running buffer prior to injection.”

[3] = biological target: T1, Insulin-like Growth Factor II (IGF-II), …; assay: as above; remark: listed apart in the source
[4] = biological target: T1, Insulin-like Growth Factor II (IGF-II), …; assay: SPR, biotinylated IGF-II on a streptavidin chip, domain 11 protein injected as analyte at 16384 to 32 nM
Experimental: The polymorphism G1619R (l) has an apparent wild type interaction and the E1544A (d) mutation has a modest positive affect on IGF-II binding.
as §1, with “In all cases the minor component made an insignificant contribution to the overall affinity and as such only the kinetic parameters of the major binding component were used.” left out, “In order to investigate the influence of ionic strength, kinetic experiments were conducted in HBS-EP running buffers containing the desired NaCl concentration. In each case, analyte samples were made up in the appropriate running buffer prior to injection.” left out
Following purification, the binding of each mutant construct to IGF2 was assessed by SPR and compared to the wild type domain 11. […]

[5] = biological target: T1, Insulin-like Growth Factor II (IGF-II), …; assay: ITC
Experimental: Calorimetric measurements were performed using a VP-ITC microcalorimeter (MicroCal). All solutions were thoroughly degassed before use by stirring under vacuum. […] The sample cell contained either wild type domain 11 (7 uM) or the E1544A mutant (8 μM), also in HBS-E buffer. To correct for the heat effects of dilution and mixing, reaction heats obtained from a control experiment, in which IGF2 was injected into HBS-E, were subtracted. calorimetric data were analysed using MicroCal ORIGIN software (version 5.0) supplied with the instrument. Thermodynamic parameters were derived by fitting the binding isotherms to a single-site binding model. Values for dissociation affinity constants (KD) were determined from duplicate experiments.
In order to validate the SPR sensorgram data, ITC was used to assess the binding affinity between domain 11 and IGF-II. The affinity of the E1544A mutant was also assessed by ITC in order to confirm whether use of a second technique agreed as to the apparent increase in affinity (FIG. 6 and Table 6). Titrations were performed using […] injections of 40 μM IGF-II (after an initial 7.5 μl injection) into the reaction cell containing wild type domain 11 or the E1544A mutant. […] The two fold differences may be simply accounted for by the fidelity of both techniques.

[6] = biological target: T1, Insulin-like Growth Factor II (IGF-II), …; assay: SPR, biotinyl-IGF-II immobilised
Text: (§2) The affinity of versions of Fc-tagged domain 11 fusion proteins, and domain 11 constructs, for IGF-II were compared using surface plasmon resonance (BIAcore 3000). Attempts were made to immobilize Fc-tagged domain 11 proteins upon a sensor chip surface (CM5 and CM5-proteinA) but we encountered similar problems as described above with immobilised monomeric domain 11. Instead, immobilisation of biotinylated IGF-I and IGF-II on separate flow cells of a streptavidin coated sensor chip (BIAcore) generated reproducible sensorgram profiles when Fc-tagged and untagged domain 11 proteins were passed over the surface as analytes. The Fc-tagged domain 11 kinetic data performed in triplicate generated sensorgrams that were analyzed using a bivalent analyte model. […] Both Fc-tagged proteins appeared to have reduced off-rates compared to the untagged monomers.

[7] = biological target: T1, Insulin-like Growth Factor II (IGF-II), …; assay: SPR, biotinyl-IGF-II immobilised, bivalent analyte model
Text: as §2

T1 sequence (P01344 25-91): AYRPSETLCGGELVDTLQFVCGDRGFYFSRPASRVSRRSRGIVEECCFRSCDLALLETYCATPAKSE

Row | Binder | Relative Affinity [1] | Relative Affinity [2] | Relative Affinity [3] | other results
1 | IGF2R domain 11, wild type, expressed in Pichia pastoris with C-terminal His6 tag (receptor, Alpha-factor signal is cleaved during secretion; soluble 17 kDa protein; also called WT; wild type domain 11) NEHDDCQVTNPSTGHLFDLSSLSGRAGFTAAYSEKGLVYMSICGENENCPPGVGACFGQTRISVGKANKRLRYVDQVLQLVYKDGSPCPSKSGLSYKSVISFVCRPEAGPTNRPMLISLDKQTCTLFFSWHTPLACEQATHHHHHH | 1 fold vs wild type domain 11 | 1 fold vs wild type domain 11 | 1 fold vs wild type domain 11 | –
2 | IGF2R domain 11 E1544V (receptor, Secreted from Pichia pastoris) NEHDDCQVTNPSTGHLFDLSSLSGRAGFTAAYSVKGLVYMSICGENENCPPGVGACFGQTRISVGKANKRLRYVDQVLQLVYKDGSPCPSKSGLSYKSVISFVCRPEAGPTNRPMLISLDKQTCTLFFSWHTPLACEQATHHHHHH | – | 1.96 fold vs wild type domain 11 | 1.96 fold vs wild type domain 11 | –
3 | IGF2R domain 11 E1544K (enhanced mutant) (receptor, Secreted from Pichia pastoris) NEHDDCQVTNPSTGHLFDLSSLSGRAGFTAAYSKKGLVYMSICGENENCPPGVGACFGQTRISVGKANKRLRYVDQVLQLVYKDGSPCPSKSGLSYKSVISFVCRPEAGPTNRPMLISLDKQTCTLFFSWHTPLACEQATHHHHHH | – | 6.12 fold vs wild type domain 11 | 6.12 fold vs wild type domain 11 | –
4 | IGF2R domain 11 I1572A (null mutant) (receptor, Secreted from Pichia pastoris) NEHDDCQVTNPSTGHLFDLSSLSGRAGFTAAYSEKGLVYMSICGENENCPPGVGACFGQTRASVGKANKRLRYVDQVLQLVYKDGSPCPSKSGLSYKSVISFVCRPEAGPTNRPMLISLDKQTCTLFFSWHTPLACEQATHHHHHH | – | – | – | binding result [4]: no binding (tested: 16384 nM)
5 | IGF2R domain 11 E1544A (receptor, Secreted from Pichia pastoris) NEHDDCQVTNPSTGHLFDLSSLSGRAGFTAAYSAKGLVYMSICGENENCPPGVGACFGQTRISVGKANKRLRYVDQVLQLVYKDGSPCPSKSGLSYKSVISFVCRPEAGPTNRPMLISLDKQTCTLFFSWHTPLACEQATHHHHHH | 2.79 fold vs wild type domain 11 | 2.79 fold vs wild type domain 11 | 2.79 fold vs wild type domain 11 | relative affinity increase over wild type by ITC [5]: ~2 fold vs wild type domain 11
6 | Fc-tagged enhanced mutant IGF2R domain 11 (11^E1544K-Fc) (Fc fusion, N-glycosylated with Man3GlcNAc2 (Drosophila cells), Homodimer, secreted from Drosophila D.Mel-2 cells; not shown: human IgG1 Fc domain, amplified from IMAGE clone 4851063 (ATCC-6878978)) NEHDDCQVTNPSTGHLFDLSSLSGRAGFTAAYSKKGLVYMSICGENENCPPGVGACFGQTRISVGKANKRLRYVDQVLQLVYKDGSPCPSKSGLSYKSVISFVCRPEAGPTNRPMLISLDKQTCTLFFSWHTPLACEQAT | – | – | – | RU response relative to 11-Fc at equal concentrations [6]: ~2 fold vs 11-Fc; molar affinity relative to 11-Fc [7]: ~2 fold vs 11-Fc
